# Reference: paper PMC2885444
# Assays:
# [1] = molecular target: CHD4 PHD2 finger, wild type (UniProt Q14839); assay: other fluorescence titration + NMR titration
# [2] = molecular target: CHD4 PHD2 finger, wild type (UniProt Q14839); assay: other fluorescence titration
# [3] = molecular target: CHD4 PHD2 finger E447A (UniProt Q14839); assay: NMR titration
# [4] = molecular target: CHD4 PHD2 finger C460W (UniProt Q14839); assay: NMR titration
Substance,Kd [1],Kd [2],also measured
H3K4me1 peptide (affinity measurements),300 µM,,
H3K9ac peptide (20-mer),,0.6 µM,
unmodified H3 peptide (12-mer histone tail peptide),,,Kd [3]: 900 µM; Kd [4]: 3700 µM
histone H3 peptide in which the primary amino group of Ala1 was acetylated,400 µM,,

# Now from value to substance, other results behind:
Kd [1],Kd [2],Substance,also measured
1000 µM,,H3K4me2 peptide (affinity measurements),
,0.9 µM,H3K9me3 peptide (12-mer histone tail peptide),
